Each block holds one molecule with its values, some of them ahead of it.
Legend:
VUN701 = assay: BRET-based β-arrestin2 recruitment competition assay (functional KB); details: 90% effective concentration of CXCL12 determined for each ACKR3 variant; parent: est. 0.0; read off a plot
[1] = biological target: atypical chemokine receptor 3 (ACKR3) (human)
[2] = biological target: atypical chemokine receptor 3 (ACKR3) (human); remark: listed apart in the source

Chain of atypical chemokine receptor 3 (ACKR3) (human) (chain, as listed by the source): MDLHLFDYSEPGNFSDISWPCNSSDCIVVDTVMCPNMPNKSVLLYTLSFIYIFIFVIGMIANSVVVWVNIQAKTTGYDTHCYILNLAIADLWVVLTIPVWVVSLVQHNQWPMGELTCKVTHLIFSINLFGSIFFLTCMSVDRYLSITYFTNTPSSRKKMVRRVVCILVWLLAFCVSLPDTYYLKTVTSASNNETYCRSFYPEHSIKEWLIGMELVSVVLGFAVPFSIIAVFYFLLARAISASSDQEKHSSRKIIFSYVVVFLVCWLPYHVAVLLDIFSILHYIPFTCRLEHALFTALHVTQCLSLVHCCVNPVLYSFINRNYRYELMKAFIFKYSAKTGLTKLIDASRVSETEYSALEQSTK

Molecule: atypical chemokine receptor 3 (ACKR3) F285A
log10 ratio (VUN701): -2.4

Molecule: atypical chemokine receptor 3 (ACKR3) D275A
log10 ratio (VUN701): -1.8

Other lines, results leading:

log10 ratio (VUN701): -1.8
Molecule: atypical chemokine receptor 3 (ACKR3) E290A

KB from Schild analysis of CXCL12-induced β-arrestin2 recruitment to ACKR3 (BRET); blocks m3 with m2 [1]: 18.2 nM
IC50 of inhibition of CXCL11-induced β-arrestin2 recruitment to ACKR3 (BRET, HEK293T); blocks m4 with m2 [2]: 105 nM
IC50 of inhibition of CXCL12-induced β-arrestin2 recruitment to ACKR3 (BRET, HEK293T); blocks m3 with m2 [2]: 157 nM
KB (Cheng-Prusoff) from inhibition of CXCL11-induced β-arrestin2 recruitment to ACKR3 (BRET); blocks m4 with m2 [2]: 23.3 nM
KB (Cheng-Prusoff) from inhibition of CXCL12-induced β-arrestin2 recruitment to ACKR3 (BRET); blocks m3 with m2 [2]: 9.8 nM
pKB (Cheng-Prusoff) from inhibition of CXCL11-induced β-arrestin2 recruitment to ACKR3 (BRET); blocks m4 with m2 [2]: 8.64
B1: VUN701 (VHH)
VHH: QVQLVESGGGLVQAGGSLRLSCAASGSTFSLHLMGWYRQAPGKQREVVATSGSGGDTNYADSVKGRFTISRDNDKNTVDLQMNNLKPEDTADYYCRAQQKIGRDTFRDYWGQGTQVTVSS

Source: paper PMC11139983
